From PMC9270183 (The Journal of Experimental Medicine, 2022)
Where a chain is given by its changes, count along the chain named.

B1: V011 (antibody, V domains shown)
VH: QVQLVQSGAEVKKPGASVKVSCKASGYIFTSYDINWVRQATGQGLEWMGWMNPNSGNTGYAQKFQGRVTMTRNTSISTAYMELSSLRSEDTAVYYCARASSSLTYYFDYWGQGTLVTVSS
VL: SYELTQPPSVSVAPGKTARITCGENNIGSKSVHWYQQKPGQAPVLVVYDDSDRPSGIPERFSGSNSGNTATLTISRVEAGDEADYYCQVWDSSSDPVVFGGGTKLTVL
notes: IgG; donor BRA13; source: recombinant monoclonal IgG, produced and purified as previously described
B2: V002 (antibody, V domains shown)
VH: EVQLVESGGGLVQPGRSLRLSCAASGFTFDEYAMHWVRQAPGKGLEWVSGSSWNSGTIGYADSVKGRFTISRDNAKNSLYLQMNSLRAEDTALYYCAKSQGDYGGNSGAGYFQHWGQGTLVTVSS
VL: B1 VL with E24G, V44M, D95E, P96V, V97Y, G101T, L105V
notes: as for B1
B3: V020 (antibody, V domains shown)
VH: QVQLVESGGGVVQPGRSLRLSCAASGFTFSSYGMHWVRQAPGKGLEWVAVISYDGSNKYYADSVKGRFTISRDNSKNTLYLQMNSLRAEDTAVYYCAKGGWFGELLRYFDYWGQGTLVTVSS
VL: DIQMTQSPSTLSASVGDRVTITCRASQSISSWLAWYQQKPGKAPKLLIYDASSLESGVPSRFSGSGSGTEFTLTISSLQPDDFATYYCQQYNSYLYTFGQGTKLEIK
notes: as for B1
B4: V026 (antibody, V domains shown)
VH: B3 VH with A24V, D54E, F102Y, E104S, L105P, L106T, R107Y
VL: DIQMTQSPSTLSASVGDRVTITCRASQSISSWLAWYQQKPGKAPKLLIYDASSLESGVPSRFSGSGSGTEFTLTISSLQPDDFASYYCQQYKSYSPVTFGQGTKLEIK
notes: as for B1
B5: V021 (antibody, V domains shown)
VH: QVQLQESGPGLVKPSQTLSLTCTVSGGSISSGSYYWSWIRQPVGKGLEWIGRIYTSGSTNYNPSLKSRVTISVDTSKNQFSLELSSVTAADRAVYYCARESSPASIPVRGVIWWFDPWGQGTLVTVSS
VL: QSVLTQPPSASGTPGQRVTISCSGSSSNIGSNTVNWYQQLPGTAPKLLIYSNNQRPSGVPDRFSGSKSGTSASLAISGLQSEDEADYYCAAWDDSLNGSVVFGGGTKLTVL
notes: IgG; donor BRA13
B6: V015 (antibody, V domains shown)
VH: EVQLVESGGGLVQPGGSLRLSCAASGFTFNSYWMSWVRQAPGKGLEWVANIKQDGSEKYYVDSVKGRFTISRDNAKNSLYLQMNSLRAEDTAVYYCARLPTYYSGFDYWGQGTLVTVSS
VL: NFMLTQPHSVSESPGKTVTISCTGSSGSIASNYVQWYQQRPGSAPTTVIYEDNQRPSGVPDRFSGSIDSSSNSASLTISGLKTEDEADYYCQSYDSTNRGVVFGGGTKLTVL
notes: as for B1
B7: V014 (antibody, V domains shown)
VH: EVQLVESGGGLVQPGGSLRLSCAASGFTFSSYDMHWVRQATGKGLEWVSAIGTAGDTYYPGSVKGRFTISRENAKNSLYLQMNSLRAGDTAVYYCARGVITMVRGVIRDYYYYGMDVWGQGTTVTVSS
VL: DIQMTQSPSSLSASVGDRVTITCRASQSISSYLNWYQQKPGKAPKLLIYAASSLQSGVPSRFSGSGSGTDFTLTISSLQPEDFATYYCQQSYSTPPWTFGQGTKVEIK
notes: as for B1
B8: V016 (antibody, V domains shown)
VH: QVQLVESGGGVVQPGRSLRLSCAASGFTFSNYGMHWVRQAPGKGLEWVAVISYDGSNKYYADSVKGRFTISRDNSKNTLYLQMNSVRVEDTAVYYCAKGSFGYSYVHTYFDYWGQGTLVTVSS
VL: DIQMTQSPSTLSASVGDRVTITCRASQSISSWLAWYQQKPGKAPKLLIYDASSLESGVPSRFSGSGSGTEFILTISSLQPDDFATYYCQQYNSPMYTFGQGTKLEIK
notes: as for B1
B9: V065 (antibody, V domains shown)
VH: QVQLVQSGAEVKKPGASVKVSCKASGYTFTSYGISWVRQAPGQGLEWMGWINTDNGNTKNAQKVQGRVTMTTDTSTSTAYMELRSLRSDDTAVYYCARGGTVGAPPIEYWGQGTLVTVSS
VL: QSALTQPASVSGSPGQSITFSCTGTSSDVGGYNYVSWYQQYPGKAPKLLIYDVTNRPSGVSDRFSGSKSGNTASLTIFGLQAEDEADYYCSSFTSSNTRVFGTGTKVTVL
notes: IgG; donor BRA15
B10: V022 (antibody, V domains shown)
VH: EVQLVESGGGLVKPGGSLRLSCAASGFTFSSYSMNWVRQAPGKGLEWVSSISSTNNYIYNADSVKGRFTISRDNAKNSLYLQMNSLRAEDTAVYYCARDPAGRYSYGLYYFYYMDVWGKGTTVTVSS
VL: QSALTQPASVSGSPGQSITISCTGTSSDVGGYNYVSWYQQRPGKAPKLMIYDVSNRPSGVSDRFSGSKSGNTASLTISGLQAEDEADYYCTSYTSSSSLYVFGTGTKVTVL
notes: as for B1
B11: V025 (antibody, V domains shown)
VH: QVQLVQSGAEVKKPGASVKVSCKASGYTFTSYGISWVRQAPGQGLEWMGWISVYNGKTNYAQKLQGRVTMTTDTSTSTAYMELRSLISDDTAVYYCARADRYNWDYGSSWGQGTLVTVSS
VL: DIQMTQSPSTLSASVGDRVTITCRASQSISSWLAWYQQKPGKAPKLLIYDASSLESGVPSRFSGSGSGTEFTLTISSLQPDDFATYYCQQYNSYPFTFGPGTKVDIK
notes: as for B1
B12: V047 (antibody, V domains shown)
VH: EVQLVESGGGLVQPGGSLRLSCAASGFTFSSYWMSWVRQAPGKGLEWVANIKQDGSEKYYVDSVKGRFTISRDNAKNSLYLQVNSLRAEDTAVYYCARGQSRQYSSSWYGPAPVVDYFDYWGQGTLVTVSS
VL: QSVLTQPPSASGTPGQRVTISCSGSSSNFGSNYVYWYQQLPGTAPKLLIYRNKQRPSGVPDRFSGSKSGTSASLAISGLRSEDEADYYCAAWDDSLSVLWVFGGGTKLTVL
notes: IgG; donor BRA15
B13: V028 (antibody, V domains shown)
VH: QVQLVESGGGVVQPGRSLRLSCAASGFTFSSYGMHWVRQAPGKGLEWVAVVSFDGSDKYYADSVKGRFTISRDNSKNTLYLQMNSLRAEDTALYYCAKGGYSYAYPRYYFDYWGQGTLVTVSS
VL: DIQMTQSPSSLSASVGDRVTITCQASQDISNYLNWYQQKPGKAPKLLIYDASNLETGVPSRFSGSGSGTDFTFTISSLQPEDIATYYCQQHDNLPITFGQGTRLEIK
notes: IgG; donor BRA14; source: recombinant monoclonal IgG, produced and purified as previously described
B14: V031 (antibody, V domains shown)
VH: B13 VH with V51I, F53Y, D57N, T69A, I70F, L93V
VL: B13 VL
notes: as for B13
B15: V017 (antibody, V domains shown)
VH: EVQLVESGGGLVQPGGSLRLSCVASGFTFSTYSMNWVRQAPGKGLEWVSYISSSSSTIYYADSVKGRFTISRDNAKSSLYLQMNSLRAEDTAVYYCASGLCGGDCPLTCWGQGTLVTVSS
VL: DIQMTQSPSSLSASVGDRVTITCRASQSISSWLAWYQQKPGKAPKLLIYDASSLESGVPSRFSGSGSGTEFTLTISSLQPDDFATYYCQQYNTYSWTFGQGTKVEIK
notes: as for B1
B16: V013 (antibody, V domains shown)
VH: QVQLVESGGGVVQPGRSLRLSCAGSGFIFSSFAMHWVRQAPGKGLEWVAVVSYDGDNKYYADSVKGRFTISRDNSKNTLYLQMDSLRPEDTAVYFCGRDEAALWIQRWYREIDFWGQGTLVTVSS
VL: QSVLTQPPSVSGTPGQRVTISCSGSSSNTGRNPVTWYQQFPGSAPKLLISRNNQRPSGVPDRFSGSKSGTSASLAISGLQSEDEADYYCAAWDDNLNGQVFGGGTKVTVL
notes: as for B1
B17: V009 (antibody, V domains shown)
VH: EVQLVQSGAEVKKPGESLKISCKGSGYRFTSYWIGWVRQMPGKGLEWMGIIYAGDSDTRYSPSFQGQVTISVDKSISTAYLQWSSLKASDTAMYYCATTMTTGYFDYWGQGTLVTVSS
VL: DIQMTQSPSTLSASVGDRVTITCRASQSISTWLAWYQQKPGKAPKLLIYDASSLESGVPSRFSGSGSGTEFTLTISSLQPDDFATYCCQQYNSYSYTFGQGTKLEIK
notes: as for B1
B18: V010 (antibody, V domains shown)
VH: QVQLQESGPGLVKPSETLSLTCTVSGGSISSYYWSWIRQPPGKGLEWIGYIYYNGSTNYNPSLKSRVTISLDTSKNQFSLKLSSVTAADTAVYYCASDYYDSSGYYYGFDYWGQGTLVTVSS
VL: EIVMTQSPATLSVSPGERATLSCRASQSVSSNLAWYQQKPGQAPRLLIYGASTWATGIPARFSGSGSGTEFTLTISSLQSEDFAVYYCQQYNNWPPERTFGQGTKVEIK
notes: as for B1
B19: V064 (antibody, V domains shown)
VH: EVQLVESGGGLVQPGGSLRLSCAASGLTVSRNYMRWVRQAPGKGLEWVSLIYSGGSTFYGDSVKGRFTISRDNSKNTLYLQMNSLRAEDTAVYYCARDLVRDGMDVWGQGTTVTVSS
VL: EIVMTQSPATLSVSPGERATLSCRASQSVSSNLAWYQQKPGQAPRLLIYGASTRATGIPARFSGSGSGTEFTLTISSLQSEDFAVYYCQQYNNWTFGQGTKVEIK
notes: IgG; donor BRA15; source: recombinant monoclonal IgG, produced and purified as previously described
B20: V019 (antibody, V domains shown)
VH: QVQLVQSGAEVKKPGSSVKVSCKASGGTFSTYTFSWVRQAPGQGLEWMGRIIPILGIANYAQKFQGRITITADKSTSTAYMELSSLRSEDTAVYYCAWGSYSYGYFVDIWGQGTMVTVSS
VL: DIVMTQTLLSLSVTPGQPASISCKSSQSLLHSDGKTYLYWYLQKPGQSPQLLIYEVSSRFSGVPDRFSGSGSGTDFTLKISRVEAEDVGVYYCMQGIQFHWTFGQGTKLEIK
notes: as for B1
B21: V003 (antibody, V domains shown)
VH: EVQLVQSGAEVKKPGESLKISCLGSGYSFTSYWIGWVRQMPGKGLEWMGIIFPADSDTRYSPSFQGQVIISADKSISTAYLQWSSLKASDTAMYYCARLREFGDYYYYGMDVWGQGTTVTVSS
VL: DIQLTQSPSSLSASVGDRVTITCRASQGISSYLAWYQQKPGKAPKLLIYAASTLQSGVPSRFSGSGSGTDFTLTISSLQPEDFATYYCQQLNSYPDFGQGTKLEIK
notes: as for B1
B22: V052 (antibody, V domains shown)
VH: EVQLVESGGGLVQPGGSLRLSCAASGFTVSSKYMNWVRQAPGKGLEWVSVIYIGGSTDYADSVKGRFTISRDNSKNTLYLQMNSLRVEDTAVYYCARDGWDYELVFWGQGTLVTVSS
VL: DIQMTQSPSSLSASVGDRVTITCRASQGIRNDLGWYQQKPGKAPKRLIYAASSLQSGVPSRFSGSGSGTEFTLTISSLQPEDFATYYCLQHNSYPRWTFGQGTKVEIK
notes: IgG; donor BRA15

Key:
[1] = biological target: T1, SARS-CoV-2 Wuhan-Hu-1 RBD (SARS-CoV-2 Wuhan-Hu-1, UniProt P0DTC2); test: BLI; conditions: both partners purified
[2] = biological target: T1, SARS-CoV-2 Wuhan-Hu-1 RBD; test: ELISA; conditions: both partners purified

Binder | Kd [1] [nM] | further results
B1 | 7.46 | 
B2 | 1170 | 
B3 | 77.3 | 
B4 | 10.7 | 
B5 |  | binding result [2]: no binding
B6 | 15.8 | 
B7 | 15.1 | 
B8 | 5.84 | 
B9 |  | binding result [1]: no binding (tested: 100 µg/ml RBD)
B10 | 13 | 
B11 | 1.93 | 
B12 |  | binding result [1]: no binding (tested: 100 µg/ml RBD)
B13 | 19.8 | 
B14 | 9.39 | 
B15 | 18.4 | 
B16 | 128 | 
B17 | 3.22 | 
B18 | 2.08 | 
B19 | 2.76 | 
B20 | 3.84 | 
B21 | 2980 | 
B22 |  | binding result [1]: no binding (tested: 100 µg/ml RBD)
